Data from patent US20240132578A1.
Values joined by “and” are separate entries in the source; they are usually repeats but may differ in a detail not shown here. Identical values can stand only once.

Columns and labels:
Experiment in all cases: cell-based or functional assay
[1] = target: HIV-1 Env of pseudovirus MGRM-C-26 (HIV-1)
[2] = target: HIV-1 Env of pseudovirus 93IN905 (HIV-1)
[3] = target: HIV-1 Env of pseudovirus JRCSF (HIV-1) (UniProt P20871)
[4] = target: HIV-1 Env of pseudovirus 94UG103 (HIV-1)
[5] = target: HIV-1 Env of pseudovirus 92BR020 (HIV-1)
[6] = target: HIV-1 Env of isolate 97ZA012 (subtype C) (HIV-1)
[7] = target: HIV-1 Env of isolate MGRM-C-001 (subtype C) (HIV-1)
[8] = target: HIV-1 Env of isolate MGRM-C-008 (subtype C) (HIV-1)
[9] = target: HIV-1 Env of isolate MGRM-G-006 (subtype G), on pseudovirus (HIV-1)
[10] = target: HIV-1 Env of isolate MGRM-G-016 (subtype G), on pseudovirus (HIV-1)
[11] = target: HIV-1 Env of isolate MGRM-C-020 (subtype C) (HIV-1)
[12] = target: HIV-1 Env of isolate MGRM-G-027 (subtype G), on pseudovirus (HIV-1)
[13] = target: HIV-1 Env of isolate MGRM-G-001 (subtype G), on pseudovirus (HIV-1)
[14] = target: HIV-1 Env of isolate MGRM-G-028 (subtype G), on pseudovirus (HIV-1)
[15] = target: HIV-1 Env of isolate MGRM-G-024 (subtype G), on pseudovirus (HIV-1)
[16] = target: HIV-1 Env of isolate MGRM-C-005 (subtype C) (HIV-1)
[17] = target: HIV-1 Env of isolate MGRM-G-017 (subtype G), on pseudovirus (HIV-1)
[18] = target: HIV-1 Env of isolate MGRM-G-014 (subtype G), on pseudovirus (HIV-1)
[19] = target: HIV-1 Env of isolate 98IN022 (subtype C) (HIV-1)
[20] = target: HIV-1 Env of isolate MGRM-C-007 (subtype C) (HIV-1)
[21] = target: HIV-1 Env of isolate MGRM-C-006 (subtype C) (HIV-1)
[22] = target: HIV-1 Env of isolate MGRM-G-025 (subtype G), on pseudovirus (HIV-1)
[23] = target: HIV-1 Env of isolate MGRM-C-024 (subtype C) (HIV-1)
[24] = target: HIV-1 Env of isolate MGRM-C-009 (subtype C) (HIV-1)
[25] = target: HIV-1 Env of isolate MGRM-G-013 (subtype G), on pseudovirus (HIV-1)
[26] = target: HIV-1 Env of isolate MGRM-G-009 (subtype G), on pseudovirus (HIV-1)
[27] = target: HIV-1 Env of isolate MGRM-C-019 (subtype C) (HIV-1)
[28] = target: HIV-1 Env of isolate MGRM-C-002 (subtype C) (HIV-1)
[29] = target: HIV-1 Env of isolate MGRM-C-022 (subtype C) (HIV-1)
[30] = target: HIV-1 Env of isolate MGRM-C-028 (subtype C) (HIV-1)
[31] = target: HIV-1 Env of isolate MGRM-G-019 (subtype G), on pseudovirus (HIV-1)
[32] = target: HIV-1 Env of isolate 93MW959 (subtype C) (HIV-1)
[33] = target: HIV-1 Env of isolate MGRM-C-012 (subtype C) (HIV-1)
[34] = target: HIV-1 Env of isolate MGRM-G-011 (subtype G), on pseudovirus (HIV-1)
[35] = target: HIV-1 Env of isolate MGRM-C-025 (subtype C) (HIV-1)
[36] = target: HIV-1 Env of isolate MGRM-C-026 (subtype C) (HIV-1)
[37] = target: HIV-1 Env of isolate MGRM-G-015 (subtype G), on pseudovirus (HIV-1)
[38] = target: HIV-1 Env of isolate MGRM-C-015 (subtype C) (HIV-1)
[39] = target: HIV-1 Env of isolate MGRM-C-017 (subtype C) (HIV-1)
[40] = target: aMLV envelope, on pseudovirus (negative control)
[41] = target: HIV-1 Env of isolate MGRM-C-027 (subtype C) (HIV-1)
[42] = target: HIV-1 Env of isolate MGRM-C-014 (subtype C) (HIV-1)
[43] = target: HIV-1 Env of isolate MGRM-C-013 (subtype C) (HIV-1)
[44] = target: HIV-1 Env of isolate MGRM-C-023 (subtype C) (HIV-1)
[45] = target: HIV-1 Env of isolate MGRM-C-004 (subtype C) (HIV-1)
[46] = target: HIV-1 Env of isolate MGRM-C-010 (subtype C) (HIV-1)
[47] = target: HIV-1 Env of isolate MGRM-G-004 (subtype G), on pseudovirus (HIV-1)

B1: PGT-137 (B cell culture well 5345_I1) (antibody, V domains shown)
VH: EVHLEESGPGLVRPSETLSLTCTASGGSIRGGEWGDSDYHWGWVRHSPEKGLEWIGSIHWRGTTHYNAPFRGRGRLSIDLSRNQFSLRLTSVTAEDTAVYYCVKHKYHDIVMVVPIAGWFDPWGQGLQVTVSS
VL: EIMMTQSPAILSVSPGDRATLSCRASQSVKNNLAWYQKRPGQAPRLLIFDTSSRASGIPARFSGGGSGTEFTLTVNSMQSEDFATYYCQQYEEWPRTFGQGTKVEIK
Primary Neutralization Index (B cell culture supernatant) [1]: 11.3 | Primary Neutralization Index (B cell culture supernatant) [2]: 3.3 | Primary Neutralization Index (B cell culture supernatant) [3]: 1.1

B2: PGT-123 (B cell culture well 4858_P8) (antibody, V domains shown)
VH: QLHLQESGPGLVKPPETLSLTCSVSGASINDAYWSWIRQSPGKRPEWVGYVHHSGDTNYNPSLKRRVTFSLDTAKNEVSLKLVDLTAADSATYFCARALHGKRIYGIVALGELFTYFYMDVWGKGTAVTVSS
VL: SSMSVSPGETAKISCGKESIGSRAVQWYQQKPGQPPSLIIYNNQDRPAGVPERFSASPDFRPGTTATLTITNVDAEDEADYYCHIYDARGGTNWVFDRGTTLTVL
Primary Neutralization Index (B cell culture supernatant) [4]: 1.1 | Primary Neutralization Index (B cell culture supernatant) [1]: 33.8 | Primary Neutralization Index (B cell culture supernatant) [5]: 2.8 | Primary Neutralization Index (B cell culture supernatant) [3]: 1.6

B3: PGT-136 (B cell culture wells 5366_P21 and 5329_C19) (antibody, V domains shown)
VH: QLQLQESGPGLVKPSETLSLTCTVSGGSMRGTDWGENDFHYGWIRQSSAKGLEWIGSIHWRGRTTHYKTSFRSRATLSIDTSNNRFSLTFSFVTAADTAVYYCARHKYHDIFRVVPVAGWFDPWGQGLLVTVSS
VL: EIVMTQSPPTLSVSPGETATLSCRASQNVKNNLAWYQLKPGQAPRLLIFDASSRAGGIPDRFSGSGYGTDFTLTVNSVQSEDFGDYFCQQYEEWPRTFGQGTKVDIK
Primary Neutralization Index (B cell culture supernatant) [1]: 6.2 and 6 | Primary Neutralization Index (B cell culture supernatant) [2]: 5.5 and 5.6 | Primary Neutralization Index (B cell culture supernatant) [3]: 1.1 and 0.9

B4: Antibody of B cell culture well 4869_K15 (antibody, V domains shown)
VH: QVHLQESGPGLVTPSETLSLTCTVSNGSVSGRFWSWIRQSPGRGLEWIGYFSDTDRSEYNPSLRSRLTLSVDRSKNQLSLRLKSVTAADSATYYCARAQQGKRIYGIVSFGEFFYYYYMDAWGKGTPVTVSS
VL: SLNPLSLAPGATAKIPCGERSRGSRAVQWYQQKPGQAPTLIIYNNQDRPAGVSERFSGNPDVAIGVTATLTISRVEVGDEADYYCHYWDSRSPISWIFGGGTQLTVL
Primary Neutralization Index (B cell culture supernatant) [4]: 1.5 | Primary Neutralization Index (B cell culture supernatant) [1]: 104 | Primary Neutralization Index (B cell culture supernatant) [5]: 3.9 | Primary Neutralization Index (B cell culture supernatant) [3]: 2.1

B5: PGT-127 (antibody, V domains shown)
VH: QPQLQESGPGLVEASETLSLTCTVSGDSTGRCNYFWGWVRQPPGKGLEWIGSLSHCRSYYNTDWTYHNPSLKSRLTISLDTPKNQVFLRLTSVTAADTATYYCARFGGEVLVYRDWPKPAWVDLWGRGTLVVTVS
VL: QSALTQPPSASGSPGQSITISCTGTSNNFVSWYQQYPGKAPKLVIYEVNKRPSGVPDRFSGSKSGSTASLTVSGLQADDEGVYYCSSLVGNWDVIFGGGTKLTVL
IC50 (µg/mL), pseudovirus neutralization [6]: > 50 µg/mL | IC50 (µg/mL), pseudovirus neutralization [7]: > 50 µg/mL | IC50 (µg/mL), pseudovirus neutralization [8]: > 50 µg/mL | IC50 (µg/mL), neutralization of pseudovirus [9]: > 50 µg/mL | IC50 (µg/mL), neutralization of pseudovirus [10]: > 50 µg/mL | IC50 (µg/mL), pseudovirus neutralization [11]: > 50 µg/mL | IC50 (µg/mL), neutralization of pseudovirus [12]: > 50 µg/mL | IC50 (µg/mL), neutralization of pseudovirus [13]: 0.113 µg/mL | IC50 (µg/mL), neutralization of pseudovirus [14]: 0.032 µg/mL | IC50 (µg/mL), neutralization of pseudovirus [15]: > 50 µg/mL | IC50 (µg/mL), pseudovirus neutralization [16]: 0.57 µg/mL | IC50 (µg/mL), neutralization of pseudovirus [17]: > 50 µg/mL | IC50 (µg/mL), neutralization of pseudovirus [18]: 0.009 µg/mL | IC50 (µg/mL), pseudovirus neutralization [19]: 19.2 µg/mL | IC50 (µg/mL), pseudovirus neutralization [20]: > 50 µg/mL | IC50 (µg/mL), pseudovirus neutralization [21]: 0.319 µg/mL | IC50 (µg/mL), neutralization of pseudovirus [22]: 19.3 µg/mL | IC50 (µg/mL), pseudovirus neutralization [23]: > 50 µg/mL | IC50 (µg/mL), pseudovirus neutralization [24]: > 50 µg/mL | IC50 (µg/mL), neutralization of pseudovirus [25]: 7.7 µg/mL | IC50 (µg/mL), neutralization of pseudovirus [26]: > 50 µg/mL | IC50 (µg/mL), pseudovirus neutralization [27]: 0.017 µg/mL | IC50 (µg/mL), pseudovirus neutralization [28]: 0.057 µg/mL | IC50 (µg/mL), pseudovirus neutralization [29]: 0.41 µg/mL | IC50 (µg/mL), pseudovirus neutralization [30]: 7.57 µg/mL | IC50 (µg/mL), neutralization of pseudovirus [31]: 0.429 µg/mL | IC50 (µg/mL), pseudovirus neutralization [32]: 6.95 µg/mL | IC50 (µg/mL), pseudovirus neutralization [33]: 1.07 µg/mL | IC50 (µg/mL), neutralization of pseudovirus [34]: > 50 µg/mL | IC50 (µg/mL), pseudovirus neutralization [35]: > 50 µg/mL | IC50 (µg/mL), pseudovirus neutralization [36]: 0.014 µg/mL | IC50 (µg/mL), neutralization of pseudovirus [37]: > 50 µg/mL | IC50 (µg/mL), pseudovirus neutralization [38]: > 50 µg/mL | IC50 (µg/mL), pseudovirus neutralization [39]: 3.4 µg/mL | IC50 (µg/mL), neutralization of pseudovirus [40]: > 50 µg/mL | IC50 (µg/mL), pseudovirus neutralization [41]: > 50 µg/mL | IC50 (µg/mL), pseudovirus neutralization [42]: > 50 µg/mL | IC50 (µg/mL), pseudovirus neutralization [43]: > 50 µg/mL | IC50 (µg/mL), pseudovirus neutralization [44]: 1.08 µg/mL | IC50 (µg/mL), pseudovirus neutralization [45]: 0.532 µg/mL | IC50 (µg/mL), pseudovirus neutralization [46]: > 50 µg/mL | IC50 (µg/mL), neutralization of pseudovirus [47]: > 50 µg/mL
